Ends that are not written are not given here.
Molecular target: T1, GST-KIXY650A (Y650A variant of CBP KIX) (UniProt P45481 586-665, limits assumed)
T1 construct: domain: KIX; not shown: GST tag
Assay: fluorescence polarization, 25 nM fluorescein-labelled peptide, GST-KIXY650A titrated

T1 sequence (P45481 586-665 Y650A limits assumed): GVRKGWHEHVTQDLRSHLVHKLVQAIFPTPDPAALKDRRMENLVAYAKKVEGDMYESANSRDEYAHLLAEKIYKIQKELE

**Q.** For GISWPTFEGDDAPVRRLSFFYILLDLYLDAPGVC(acetamidofluorescein)-NH2 (designed binder, also called PPKID6 (unphosphorylated)) [PPKID6^U], which “EC50 (read off the curve)” value is on record?
**A.** The value was ~700 nM.

Source: patent publication US20050287542A1 (YALE UNIVERSITY, published 2005)
